Laboratory results: paper PMC12557367, ““Precision on Two Wheels”–Structural Refinement of ^64Cu- and ^68Ga-Labeled Bicyclic Peptides Targeting Nectin‑4 for Improved Tumor Imaging: From Preclinical Development to First-in-Human Application” (Journal of Medicinal Chemistry, 2025)
Numbered stars: 1 amine (or outer) side, 2 acyl side, 3 side chain; on linkers, the order of the positions; unused ones are H or OH. Bridge positions count the residues as written; N and C are the ends. Square brackets hold non-standard residues; d marks the D form. * marks the point of attachment. 6‑TAMRA = CN(C)c1ccc2c(-c3cc(C(=O)*)ccc3C(=O)[O-])c3ccc(N(C)C)cc3[o+]c2c1; (R)‑NODAGA = O=C(O)CN1CCN(CC(=O)O)CCN([C@H](CCC(=O)*)C(=O)O)CC1; 6FAM = O=C1OC2(c3ccc(O)cc3Oc3cc(O)ccc32)c2cc(C(=O)*)ccc21; DOTA = O=C(O)CN1CCN(CC(=O)O)CCN(CC(=O)*)CCN(CC(=O)O)CC1; TATA = O=C(CC[*:1])N1CN(C(=O)CC[*:2])CN(C(=O)CC[*:3])C1; Mox = methoxinine, COCC[C@H](N[*:1])C(=O)[*:2]; 1Nal = N[C@@H](Cc1cccc2ccccc12)C(=O)O; 2Nal = N[C@@H](Cc1ccc2ccccc2c1)C(=O)O; Hyp = O=C(O)[C@@H]1C[C@@H](O)CN1; hArg = N=C(N)NCCCC[C@H](N)C(=O)O

biological target: T1, nectin-4 on intact HT-1376 cells (human (endogenous in HT-1376), UniProt Q96NY8 32-510); experiment: radioligand binding; intact HT-1376 cells, 10 nM radioligand, 37 °C, 1 h, PBS wash; nonspecific binding with 1 µM 1d (3a for [68Ga]Ga-8d); specific binding in fmol/mg protein; conditions: one partner purified
T1 construct: also called cellular nectin-4
T1 sequence (looked up): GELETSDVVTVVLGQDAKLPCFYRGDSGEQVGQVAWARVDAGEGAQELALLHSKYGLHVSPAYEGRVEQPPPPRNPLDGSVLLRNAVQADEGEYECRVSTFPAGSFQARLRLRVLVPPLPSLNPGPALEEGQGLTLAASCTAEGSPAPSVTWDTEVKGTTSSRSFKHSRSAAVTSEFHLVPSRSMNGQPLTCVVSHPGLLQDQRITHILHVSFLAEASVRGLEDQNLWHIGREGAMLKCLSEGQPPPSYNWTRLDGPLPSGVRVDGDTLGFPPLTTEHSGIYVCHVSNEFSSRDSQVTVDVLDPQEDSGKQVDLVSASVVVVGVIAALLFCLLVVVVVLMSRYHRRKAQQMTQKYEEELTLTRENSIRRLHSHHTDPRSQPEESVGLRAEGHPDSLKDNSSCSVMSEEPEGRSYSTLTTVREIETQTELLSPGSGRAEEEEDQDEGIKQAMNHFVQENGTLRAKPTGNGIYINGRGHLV

| Binder | specific cell binding at 10 nM radioligand |
| --- | --- |
| {(R)‑NODAGA}-CP[1Nal][dD]CM[hArg]DWSTP[Hyp]WC-NH2 (linker 1-5-15 via TATA; also: NODAGA complexed with 64Cu) [[64Cu]Cu-1e] | 159 fmol/mg |
| {(R)‑NODAGA}-CP[1Nal][dD]CM[hArg]DWSTP[Hyp]WC-NH2 (linker 1-5-15 via TATA; also: NODAGA complexed with 68Ga) [[68Ga]Ga-1e] | 474 fmol/mg |
| {(R)‑NODAGA}-CP[2Nal][dD]CMRDWSTP[Hyp]WC-NH2 (linker 1-5-15 via TATA; also: NODAGA complexed with 64Cu) [[64Cu]Cu-8a] | 15.6 fmol/mg |
| {DOTA}-CP[2Nal][dD]CMRDWSTP[Hyp]WC-NH2 (linker 1-5-15 via TATA; also: DOTA complexed with 68Ga) [[68Ga]Ga-8c] | 38.4 fmol/mg |

biological target: T2, recombinant human nectin-4 (human, UniProt Q96NY8 32-349); experiment: SPR; Biacore T200, human nectin-4 immobilised on CM5 chip by amine coupling, peptides as analytes, single-cycle kinetics, 25 °C, HBS-P+ pH 7.4, no DMSO, 1:1 binding model; conditions: both partners purified
T2 construct: nectin-4, human, recombinant; also called complete extracellular domain of nectin-4; source: bought: R&D Systems (Catalog number 2659-N4)
T2 sequence (looked up): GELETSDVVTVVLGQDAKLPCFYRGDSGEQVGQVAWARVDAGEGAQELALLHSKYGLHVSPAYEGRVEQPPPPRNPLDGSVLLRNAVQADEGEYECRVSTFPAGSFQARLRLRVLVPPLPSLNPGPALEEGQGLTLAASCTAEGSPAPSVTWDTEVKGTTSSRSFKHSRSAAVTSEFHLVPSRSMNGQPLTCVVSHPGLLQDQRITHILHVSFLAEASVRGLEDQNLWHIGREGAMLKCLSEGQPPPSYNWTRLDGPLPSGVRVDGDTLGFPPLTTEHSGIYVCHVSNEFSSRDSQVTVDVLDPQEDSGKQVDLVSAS

| Binder | Kd | koff | kon |
| --- | --- | --- | --- |
| {(R)‑NODAGA}-CP[1Nal][dD]CMRDWSTP[Hyp]WC-NH2 (linker 1-5-15 via TATA) [10] | 2.51 nM | 0.00278 s⁻¹ | 1.11e+06 M⁻¹ s⁻¹ |
| {(R)‑NODAGA}-CP[1Nal][dD]CM[hArg]DWSTP[Hyp]WC-NH2 (linker 1-5-15 via TATA) [1e] | 3.6 nM | 0.00434 s⁻¹ | 1.21e+06 M⁻¹ s⁻¹ |
| {(R)‑NODAGA}-CP[1Nal][dD]CM[hArg]DWSTP[Hyp]WC-NH2 (linker 1-5-15 via TATA; also: NODAGA complexed with natGa) [natGa-1e] | 2.39 nM | 0.0026 s⁻¹ | 1.1e+06 M⁻¹ s⁻¹ |
| {DOTA}-CP[1Nal][dD]CM[hArg]DWSTP[Hyp]WC-NH2 (linker 1-5-15 via TATA) [1f] | 1.31 nM | 0.0115 s⁻¹ | 8.76e+06 M⁻¹ s⁻¹ |

biological target: T3, recombinant N-terminal Ig-like V domain of nectin-4 (human); experiment: fluorescence polarisation; fluorescence anisotropy, direct binding of probe 1a to the N-terminal Ig-like V domain of nectin-4; same procedure as for nectin-4; conditions: both partners purified
T3 construct: nectin-4, N-terminal Ig-like V domain, recombinant; source: bought: Acro Biosystems (NE4-H82Ea)
T3 sequence (Q96NY8 whole entry): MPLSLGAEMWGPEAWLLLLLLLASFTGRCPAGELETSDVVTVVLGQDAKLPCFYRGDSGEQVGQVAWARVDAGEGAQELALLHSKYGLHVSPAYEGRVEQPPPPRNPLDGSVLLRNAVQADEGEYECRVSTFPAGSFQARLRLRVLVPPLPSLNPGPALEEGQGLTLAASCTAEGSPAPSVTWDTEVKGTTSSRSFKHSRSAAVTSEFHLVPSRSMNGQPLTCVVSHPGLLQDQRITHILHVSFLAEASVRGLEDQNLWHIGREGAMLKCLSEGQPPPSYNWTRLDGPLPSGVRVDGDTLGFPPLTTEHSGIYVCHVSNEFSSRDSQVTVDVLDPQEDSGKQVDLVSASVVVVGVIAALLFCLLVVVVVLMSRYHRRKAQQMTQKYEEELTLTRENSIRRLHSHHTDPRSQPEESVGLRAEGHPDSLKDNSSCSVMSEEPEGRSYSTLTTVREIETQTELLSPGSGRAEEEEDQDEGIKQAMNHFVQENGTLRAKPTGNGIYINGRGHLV

| Binder | Kd |
| --- | --- |
| {6‑TAMRA}-CP[1Nal][dD]CM[hArg]DWSTP[Hyp]WC-NH2 (linker 1-5-15 via TATA) [1a] | 1.3 nM |

biological target: T2, recombinant human nectin-4; experiment: fluorescence polarisation; fluorescence anisotropy, direct binding: 1 nM fluorescent probe, 11 to 13 concentrations of nectin-4 (e.g. 0.06-250 nM), 37 °C, 1200 s, HEPES buffer 20 mM pH 7.4, 0.01% Tween20, NaCl, 1% DMSO; Morrison equation; conditions: both partners purified

| Binder | Kd |
| --- | --- |
| {6‑TAMRA}-CP[1Nal][dD]CM[hArg]DWSTP[Hyp]WC-NH2 (linker 1-5-15 via TATA) [1a] | 0.94 ± 0.09 nM |
| 6FAM-CP[2Nal][dD]CMRDWSTP[Hyp]WC-NH2 (linker 1-5-15 via TATA) [8b] | 1.38 ± 0.06 nM |
| 6FAM-CP[1Nal][dD]CM[hArg]DWSTP[Hyp]WC-NH2 (linker 1-5-15 via TATA) [1b] | 0.17 ± 0.01 nM |

biological target: T2, recombinant human nectin-4; experiment: fluorescence polarisation; fluorescence anisotropy, competition: 1 nM probe 1a, 20 nM nectin-4, 10 concentrations of nonlabeled peptide, 37 °C, HEPES buffer pH 7.4, 1% DMSO; IC50 transformed into Kd (Nikolovska-Coleska equation, Kd of 1a 0.94 nM); conditions: both partners purified

| Binder | Kd |
| --- | --- |
| {(R)‑NODAGA}-CP[1Nal][dD]CMRDWSTP[Hyp]WC-NH2 (linker 1-5-15 via TATA) [10] | 0.61 nM |
| {(R)‑NODAGA}-CP[1Nal][dD]CM[hArg]DWSTP[Hyp]WC-NH2 (linker 1-5-15 via TATA) [1e] | 0.77 nM |
| {(R)‑NODAGA}-CP[1Nal][dD]CM[hArg]DWSTP[Hyp]WC-NH2 (linker 1-5-15 via TATA; also: NODAGA complexed with natGa) [natGa-1e] | 4.47 nM |
| {DOTA}-CP[1Nal][dD]CM[hArg]DWSTP[Hyp]WC-NH2 (linker 1-5-15 via TATA) [1f] | 7.22 nM |

biological target: T1, nectin-4 on intact HT-1376 cells; experiment: radioligand binding; saturation binding on intact HT-1376 cells, 10 radioligand concentrations (0.156-80 or 0.321-160 nM), 37 °C, 1 h, PBS wash; nonspecific with 1 µM 1d; apparent (covers binding and putative internalisation); conditions: one partner purified

| Binder | Kd |
| --- | --- |
| {(R)‑NODAGA}-CP[1Nal][dD]CM[hArg]DWSTP[Hyp]WC-NH2 (linker 1-5-15 via TATA; also: NODAGA complexed with 64Cu) [[64Cu]Cu-1e] | 7.15 nM |
| {(R)‑NODAGA}-CP[1Nal][dD]CM[hArg]DWSTP[Hyp]WC-NH2 (linker 1-5-15 via TATA; also: NODAGA complexed with 68Ga) [[68Ga]Ga-1e] | 8.7 nM |
| {(R)‑NODAGA}-CP[2Nal][dD]CMRDWSTP[Hyp]WC-NH2 (linker 1-5-15 via TATA; also: NODAGA complexed with 64Cu) [[64Cu]Cu-8a] | 51.7 nM |
| {DOTA}-CP[2Nal][dD]CMRDWSTP[Hyp]WC-NH2 (linker 1-5-15 via TATA; also: DOTA complexed with 68Ga) [[68Ga]Ga-8c] | 103 nM |
| {(R)‑NODAGA}-CP[1Nal][dD]C[Mox][hArg]DWSTP[Hyp]WC-NH2 (linker 1-5-15 via TATA; also: NODAGA complexed with 64Cu) [[64Cu]Cu-4] | 6.06 nM |
| {(R)‑NODAGA}-CP[1Nal][dD]C[Mox][hArg]DWSTP[Hyp]WC-NH2 (linker 1-5-15 via TATA; also: NODAGA complexed with 68Ga) [[68Ga]Ga-4] | 13.1 nM |
| {DOTA}-CP[2Nal][dD]CMRDWSTP[Hyp]WC-OH (linker 1-5-15 via TATA; also: DOTA complexed with 68Ga) [[68Ga]Ga-8d ([68Ga]Ga-N188)] | 222 nM |

biological target: T1, nectin-4 on intact HT-1376 cells; experiment: radioligand binding; cellular efflux: release of [64Cu]Cu-4 from intact HT-1376 cells over 4 h at 37 °C after 1 h incubation at 10 nM; two-phase decay; conditions: one partner purified

| Binder | half-life of the fast phase of cellular release |
| --- | --- |
| {(R)‑NODAGA}-CP[1Nal][dD]C[Mox][hArg]DWSTP[Hyp]WC-NH2 (linker 1-5-15 via TATA; also: NODAGA complexed with 64Cu) [[64Cu]Cu-4] | 9.5 min |
